Assay results taken from publication PMC10502012, “Molecular basis of TASL recruitment by the peptide/histidine transporter 1, PHT1” (Nature Communications, 2023).
Values belong to the binder of their own block, whether it stands above or below them.

How the values were obtained:
[1] = biological target: chicken PHT1 (purified, wild type) (chicken)
[2] = biological target: T1, chicken PHT1 L12A/L13A (purified, deglycosylated, cryo-EM sample) (Gallus gallus (chicken), UniProt A0A8V0ZFZ8;A0A8V0Z8V0, point mutant); test: cryo-EM structure; PHT1 L12A/L13A with two-fold molar excess of Sb27, EndoH, gel filtration; 10 mM MOPS pH 7.0, 100 mM NaCl, 0.01% DDM/0.002% CHS; settings: both partners purified
T1 construct: chicken PHT1 (SLC15A4), full length, 581 residues, with L12A and L13A; Residues 19-569 modelled in the map; also called plasma membrane mutant of PHT1; source: Expi293F GnT1-, transiently transfected, Strep-Tactin purified, treated with EndoH, gel filtration

[3] = biological target: T1, chicken PHT1 L12A/L13A (purified, …); test: thermal shift (nanoDSF); PHT1 alone against PHT1-Sb27 at 0.4 mg/mL in 50 mM HEPES pH 7.5, 100 mM NaCl, 0.02% DDM/0.004% CHS; settings: both partners purified

Sequence of chicken PHT1 (purified, wild type) (chicken) (chain, as listed by the source): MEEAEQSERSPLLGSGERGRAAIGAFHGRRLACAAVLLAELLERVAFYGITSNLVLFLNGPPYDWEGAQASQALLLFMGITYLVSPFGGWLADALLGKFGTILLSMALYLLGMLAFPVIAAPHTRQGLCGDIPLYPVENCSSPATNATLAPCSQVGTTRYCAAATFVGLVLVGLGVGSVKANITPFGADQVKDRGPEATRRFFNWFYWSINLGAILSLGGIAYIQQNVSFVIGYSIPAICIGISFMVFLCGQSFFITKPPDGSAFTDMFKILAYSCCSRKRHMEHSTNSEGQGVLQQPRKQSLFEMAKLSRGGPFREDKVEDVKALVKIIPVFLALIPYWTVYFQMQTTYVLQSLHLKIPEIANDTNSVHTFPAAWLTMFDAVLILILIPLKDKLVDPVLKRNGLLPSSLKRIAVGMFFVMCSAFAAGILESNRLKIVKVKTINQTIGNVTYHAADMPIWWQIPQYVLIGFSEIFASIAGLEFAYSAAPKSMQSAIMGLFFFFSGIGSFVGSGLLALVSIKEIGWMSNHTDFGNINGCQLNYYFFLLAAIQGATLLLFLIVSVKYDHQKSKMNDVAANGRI

binding result [1]: binds
B1: 155 (VHH)
VHH: QVQLVESGGGLVQAGGSLRLSCAAGGFPVKTSWMRWYRQAPGKEREWVAAINSTGDWTEYADSVKGRFTISRDNAKNTVYLQMNSLKPEDTAVYYCNVKDYGVQTYYYDYWGQGTQVTVSA

stoichiometry N [2]: 2
B2: sybody 27 (VHH)
VHH: QVQLVESGGGSVQAGGSLRLSCAASGDIETIWYLGWFRQAPGKEREGVAALSTVTGSTYYADSVKGRFTVSLDNAKNTVYLQMNSLKPEDTALYYCAAAYTGWMAPLWQWVYSYWGQGTQVTVSA
notes: synthetic nanobody selected from the sybody libraries; Expressed from the pSBinit plasmid; also called Sb27; Sb27a; source: E. coli MC1061 F-, periplasm, purified (Ni-NTA, gel filtration)
increase of the melting temperature of PHT1 [3]: 6 degrees
